The results in this text go back to publication PMC10786891, “Massively parallel profiling of RNA-targeting CRISPR-Cas13d”.

T1: EsCas13d, nuclease-dead (Eubacterium siraeum, UniProt B0MS50, R295A;H300A;R849A;H854A)
T1 sequence: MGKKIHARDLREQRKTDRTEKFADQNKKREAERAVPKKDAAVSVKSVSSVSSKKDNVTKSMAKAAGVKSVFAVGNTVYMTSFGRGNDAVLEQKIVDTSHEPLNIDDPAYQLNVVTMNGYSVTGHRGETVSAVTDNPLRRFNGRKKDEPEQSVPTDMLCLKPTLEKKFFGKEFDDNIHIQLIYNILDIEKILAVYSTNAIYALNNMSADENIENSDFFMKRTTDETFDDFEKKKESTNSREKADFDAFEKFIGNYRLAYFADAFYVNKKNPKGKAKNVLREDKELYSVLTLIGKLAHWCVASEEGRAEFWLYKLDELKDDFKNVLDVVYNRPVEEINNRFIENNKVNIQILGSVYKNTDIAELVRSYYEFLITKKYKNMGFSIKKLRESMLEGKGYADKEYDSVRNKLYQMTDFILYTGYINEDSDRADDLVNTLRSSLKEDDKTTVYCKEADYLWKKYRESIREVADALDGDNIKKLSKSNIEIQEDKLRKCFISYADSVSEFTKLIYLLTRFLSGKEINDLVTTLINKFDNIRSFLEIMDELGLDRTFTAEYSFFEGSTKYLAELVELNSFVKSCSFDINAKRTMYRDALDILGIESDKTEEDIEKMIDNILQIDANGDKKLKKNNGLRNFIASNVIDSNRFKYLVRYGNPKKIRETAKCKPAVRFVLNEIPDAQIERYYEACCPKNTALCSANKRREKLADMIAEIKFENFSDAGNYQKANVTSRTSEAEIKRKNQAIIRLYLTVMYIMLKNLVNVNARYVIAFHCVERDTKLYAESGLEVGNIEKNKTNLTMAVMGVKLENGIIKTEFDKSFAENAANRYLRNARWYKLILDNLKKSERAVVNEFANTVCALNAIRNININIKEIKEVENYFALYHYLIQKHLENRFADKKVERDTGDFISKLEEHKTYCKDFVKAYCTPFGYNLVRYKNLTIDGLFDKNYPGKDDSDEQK

B1: target 1 insG 3' of 20,insU 3' of 12 (mixed)
RNA 1: CACCCGUGCAAAAAUGCAGGGGUCUAAAACUGAGCGGAUAACCUCUCUAUGG
RNA 2: GGGAAUGGAUCCACAUCUACGAAUUCGUACCAGUAGAGAGGUUUAUCCGCUCACCGAGAUCGGAAGAGCACACGU
B2: target 1 insG 3' of 7,insA 3' of 3 (mixed)
RNA 1: CACCCGUGCAAAAAUGCAGGGGUCUAAAACUGAGCGGAUAACCUCUCUAUGG
RNA 2: GGGAAUGGAUCCACAUCUACGAAUUCGUACCAUAGAGAGGUUAUCGCGCUACACCGAGAUCGGAAGAGCACACGU
B3: target 1 insC 3' of 15,insA 3' of 15 (mixed)
RNA 1: CACCCGUGCAAAAAUGCAGGGGUCUAAAACUGAGCGGAUAACCUCUCUAUGG
RNA 2: GGGAAUGGAUCCACAUCUACGAAUUCGUACCAUAGAGCAAGGUUAUCCGCUCACCGAGAUCGGAAGAGCACACGU
B4: target 2 MT 5'PFS ACG 3'PFS ACU (mixed)
RNA 1: CACCCGUGCAAAAUUGCAGGGGUCUAAAACCUUCUCCAAAUUGUUUCAUCCU
RNA 2: GGGAAUGGAUCCACAUCUACGAAUUCACGAGGAUGAAACAAUUUGGAGAAGACUAGAUCGGAAGAGCACACGU
B5: target 2 MT 5'PFS GGC 3'PFS CGG (mixed)
RNA 1: CACCCGUGCAAAAUUGCAGGGGUCUAAAACCUUCUCCAAAUUGUUUCAUCCU
RNA 2: GGGAAUGGAUCCACAUCUACGAAUUCGGCAGGAUGAAACAAUUUGGAGAAGCGGAGAUCGGAAGAGCACACGU
B6: target 2 MT 5'PFS GGC 3'PFS CGC (mixed)
RNA 1: CACCCGUGCAAAAUUGCAGGGGUCUAAAACCUUCUCCAAAUUGUUUCAUCCU
RNA 2: GGGAAUGGAUCCACAUCUACGAAUUCGGCAGGAUGAAACAAUUUGGAGAAGCGCAGAUCGGAAGAGCACACGU
B7: target 2 MT 5'PFS CAU 3'PFS CAC (mixed)
RNA 1: CACCCGUGCAAAAUUGCAGGGGUCUAAAACCUUCUCCAAAUUGUUUCAUCCU
RNA 2: GGGAAUGGAUCCACAUCUACGAAUUCCAUAGGAUGAAACAAUUUGGAGAAGCACAGAUCGGAAGAGCACACGU
B8: target 2 MT 5'PFS CAU 3'PFS CAA (mixed)
RNA 1: CACCCGUGCAAAAUUGCAGGGGUCUAAAACCUUCUCCAAAUUGUUUCAUCCU
RNA 2: GGGAAUGGAUCCACAUCUACGAAUUCCAUAGGAUGAAACAAUUUGGAGAAGCAAAGAUCGGAAGAGCACACGU
B9: target 2 MT 5'PFS AAA 3'PFS UCU (mixed)
RNA 1: CACCCGUGCAAAAUUGCAGGGGUCUAAAACCUUCUCCAAAUUGUUUCAUCCU
RNA 2: GGGAAUGGAUCCACAUCUACGAAUUCAAAAGGAUGAAACAAUUUGGAGAAGUCUAGAUCGGAAGAGCACACGU
B10: target 2 MT 5'PFS ACC 3'PFS ACG (mixed)
RNA 1: CACCCGUGCAAAAUUGCAGGGGUCUAAAACCUUCUCCAAAUUGUUUCAUCCU
RNA 2: GGGAAUGGAUCCACAUCUACGAAUUCACCAGGAUGAAACAAUUUGGAGAAGACGAGAUCGGAAGAGCACACGU
B11: target 2 MT 5'PFS UUU 3'PFS ACA (mixed)
RNA 1: CACCCGUGCAAAAUUGCAGGGGUCUAAAACCUUCUCCAAAUUGUUUCAUCCU
RNA 2: GGGAAUGGAUCCACAUCUACGAAUUCUUUAGGAUGAAACAAUUUGGAGAAGACAAGAUCGGAAGAGCACACGU
B12: target 2 MT 5'PFS UCU 3'PFS UUU (mixed)
RNA 1: CACCCGUGCAAAAUUGCAGGGGUCUAAAACCUUCUCCAAAUUGUUUCAUCCU
RNA 2: GGGAAUGGAUCCACAUCUACGAAUUCUCUAGGAUGAAACAAUUUGGAGAAGUUUAGAUCGGAAGAGCACACGU
B13: target 2 MT 5'PFS UCU 3'PFS UUC (mixed)
RNA 1: CACCCGUGCAAAAUUGCAGGGGUCUAAAACCUUCUCCAAAUUGUUUCAUCCU
RNA 2: GGGAAUGGAUCCACAUCUACGAAUUCUCUAGGAUGAAACAAUUUGGAGAAGUUCAGAUCGGAAGAGCACACGU
B14: target 2 MT 5'PFS UCU 3'PFS UUA (mixed)
RNA 1: CACCCGUGCAAAAUUGCAGGGGUCUAAAACCUUCUCCAAAUUGUUUCAUCCU
RNA 2: GGGAAUGGAUCCACAUCUACGAAUUCUCUAGGAUGAAACAAUUUGGAGAAGUUAAGAUCGGAAGAGCACACGU
B15: target 2 MT 5'PFS UUU 3'PFS ACG (mixed)
RNA 1: CACCCGUGCAAAAUUGCAGGGGUCUAAAACCUUCUCCAAAUUGUUUCAUCCU
RNA 2: GGGAAUGGAUCCACAUCUACGAAUUCUUUAGGAUGAAACAAUUUGGAGAAGACGAGAUCGGAAGAGCACACGU
B16: target 2 MT 5'PFS GGC 3'PFS CGU (mixed)
RNA 1: CACCCGUGCAAAAUUGCAGGGGUCUAAAACCUUCUCCAAAUUGUUUCAUCCU
RNA 2: GGGAAUGGAUCCACAUCUACGAAUUCGGCAGGAUGAAACAAUUUGGAGAAGCGUAGAUCGGAAGAGCACACGU
B17: target 2 MT 5'PFS GGC 3'PFS CGA (mixed)
RNA 1: CACCCGUGCAAAAUUGCAGGGGUCUAAAACCUUCUCCAAAUUGUUUCAUCCU
RNA 2: GGGAAUGGAUCCACAUCUACGAAUUCGGCAGGAUGAAACAAUUUGGAGAAGCGAAGAUCGGAAGAGCACACGU
B18: target 2 MT 5'PFS AUA 3'PFS UGU (mixed)
RNA 1: CACCCGUGCAAAAUUGCAGGGGUCUAAAACCUUCUCCAAAUUGUUUCAUCCU
RNA 2: GGGAAUGGAUCCACAUCUACGAAUUCAUAAGGAUGAAACAAUUUGGAGAAGUGUAGAUCGGAAGAGCACACGU
B19: target 2 MT 5'PFS AGU 3'PFS UAC (mixed)
RNA 1: CACCCGUGCAAAAUUGCAGGGGUCUAAAACCUUCUCCAAAUUGUUUCAUCCU
RNA 2: GGGAAUGGAUCCACAUCUACGAAUUCAGUAGGAUGAAACAAUUUGGAGAAGUACAGAUCGGAAGAGCACACGU
B20: target 2 MT 5'PFS ACA 3'PFS AAC (mixed)
RNA 1: CACCCGUGCAAAAUUGCAGGGGUCUAAAACCUUCUCCAAAUUGUUUCAUCCU
RNA 2: GGGAAUGGAUCCACAUCUACGAAUUCACAAGGAUGAAACAAUUUGGAGAAGAACAGAUCGGAAGAGCACACGU
B21: target 2 MT 5'PFS ACC 3'PFS ACC (mixed)
RNA 1: CACCCGUGCAAAAUUGCAGGGGUCUAAAACCUUCUCCAAAUUGUUUCAUCCU
RNA 2: GGGAAUGGAUCCACAUCUACGAAUUCACCAGGAUGAAACAAUUUGGAGAAGACCAGAUCGGAAGAGCACACGU
B22: target 2 MT 5'PFS UUU 3'PFS ACC (mixed)
RNA 1: CACCCGUGCAAAAUUGCAGGGGUCUAAAACCUUCUCCAAAUUGUUUCAUCCU
RNA 2: GGGAAUGGAUCCACAUCUACGAAUUCUUUAGGAUGAAACAAUUUGGAGAAGACCAGAUCGGAAGAGCACACGU
B23: target 2 MT 5'PFS AAU 3'PFS ACG (mixed)
RNA 1: CACCCGUGCAAAAUUGCAGGGGUCUAAAACCUUCUCCAAAUUGUUUCAUCCU
RNA 2: GGGAAUGGAUCCACAUCUACGAAUUCAAUAGGAUGAAACAAUUUGGAGAAGACGAGAUCGGAAGAGCACACGU
B24: target 2 MT 5'PFS AGG 3'PFS AGC (mixed)
RNA 1: CACCCGUGCAAAAUUGCAGGGGUCUAAAACCUUCUCCAAAUUGUUUCAUCCU
RNA 2: GGGAAUGGAUCCACAUCUACGAAUUCAGGAGGAUGAAACAAUUUGGAGAAGAGCAGAUCGGAAGAGCACACGU
B25: target 2 MT 5'PFS AAU 3'PFS ACC (mixed)
RNA 1: CACCCGUGCAAAAUUGCAGGGGUCUAAAACCUUCUCCAAAUUGUUUCAUCCU
RNA 2: GGGAAUGGAUCCACAUCUACGAAUUCAAUAGGAUGAAACAAUUUGGAGAAGACCAGAUCGGAAGAGCACACGU
B26: target 2 MT 5'PFS AGG 3'PFS AGA (mixed)
RNA 1: CACCCGUGCAAAAUUGCAGGGGUCUAAAACCUUCUCCAAAUUGUUUCAUCCU
RNA 2: GGGAAUGGAUCCACAUCUACGAAUUCAGGAGGAUGAAACAAUUUGGAGAAGAGAAGAUCGGAAGAGCACACGU
B27: target 2 MT 5'PFS ACC 3'PFS ACU (mixed)
RNA 1: CACCCGUGCAAAAUUGCAGGGGUCUAAAACCUUCUCCAAAUUGUUUCAUCCU
RNA 2: GGGAAUGGAUCCACAUCUACGAAUUCACCAGGAUGAAACAAUUUGGAGAAGACUAGAUCGGAAGAGCACACGU

In this series the target is T1, EsCas13d, nuclease-dead. Nature of the series: crRNA (strand 1, pre-loaded); Mg2+; 40 mM Tris-HCl pH 7.5, 150 mM NaCl, 6 mM MgCl2, 1 mM DTT, 0.1% Tween-20, 0.2 mg/ml BSA; 25 C; 10 min per concentration, then washed. The following applies: tags: His6-TwinStrep-SUMO cleaved; N-terminal SNAP kept (SNAP-Surface 488); label: 3' end held by stalled T7 RNA polymerase.
The molecule B1 yielded a dissociation constant Kd of 25 ± 4 nM.

For B2, binding was characterised by a dissociation constant (Kd) of 5.85 ± 0.29 nM. Compared with the last molecule, the Kd is about 4.3-fold lower.

As to B3, binding was put at a Kd of 8.8 ± 0.6 nM. This Kd lies about 1.5-fold higher than the previous one.

Regarding B4, the affinity, expressed as Kd, was 17 ± 5 nM.

Turning to B5, the Kd was 14.1 ± 1.7 nM.

B6 came in with a Kd of 12.5 ± 1.1 nM.

B7: binding was characterised by a dissociation constant (Kd) of 4.6 ± 0.8 nM.

In turn, B8 yielded a Kd of 5.2 ± 0.9 nM.

For the molecule B9, the Kd stood at 15 ± 5 nM.

B10 returned a Kd of 4.3 ± 0.9 nM.

Consider B11, for which binding was put at a Kd of 6.1 ± 0.7 nM.

Regarding B12, the Kd was 10.3 ± 1 nM. This Kd lies about 1.7-fold higher than the previous one.

B13 showed a Kd of 18 ± 4 nM.

The molecule B14 gave a Kd of 15.6 ± 3 nM.

As for B15, binding was characterised by a dissociation constant (Kd) of 10.6 ± 2 nM.

With B16, the Kd worked out at 18 ± 2.4 nM.

Consider B17, for which the affinity, expressed as Kd, was 11.4 ± 1.2 nM. Compared with the last molecule, the Kd is about 1.6-fold lower.

With B18, the Kd amounted to 13.3 ± 2 nM.

As to B19, the dissociation constant Kd stood at 15.1 ± 3.3 nM.

B20 showed a Kd of 4 ± 1.3 nM.

With B21, the Kd amounted to 10.2 ± 3.1 nM.

On to B22, for which binding was put at a Kd of 14.1 ± 3.4 nM.

As for B23, the affinity, expressed as Kd, was 5.5 ± 0.6 nM.

B24 displayed a Kd of 4.8 ± 0.5 nM.

B25 gave a dissociation constant (Kd) of 10.5 ± 1.6 nM.

For B26, the affinity, expressed as Kd, was 3.4 ± 0.4 nM. Compared with the last molecule, the Kd is about 3.1-fold lower.

B27 registered a Kd of 7.1 ± 3.2 nM. Against the preceding molecule, the Kd is about 2.1-fold higher.
